B1: PTPRD (parent)
chain: ELDELLKEISRKRRSIRYGREVEL
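Note: lentivirally expressed fusions sorted by FACS into six bins by GFP to DsRed ratio, PSI derived from sequencing read proportions per bin multiplied by bin number.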

Variants of: B1
Test: protein stability index of a GFP-peptide fusion (GPS, HEK-293T) (PSI 1-6); higher = more stable
Conditions: c terminus: a fixed tail appended
ELDELLKEISRKRRSIRYGREVYL gave a protein stability index of 1.92.
ELDELLKEISRKRRSIRYGREVPL gave a protein stability index of 2.56.
Work on ELDELLKEISRKRRSIRYGREVML yielded a protein stability index of 2.08.
ELDELLKEISRKRRSIRYGREVQL gave a protein stability index of 2.25.
In the case of ELDELLKEISRKRRSIRYGREVWL, the protein stability index is reported as 2.09.
For ELDELLKEISRKRRSIRYGREVDL, the protein stability index was 2.12.
Work on ELDELLKEISRKRRSIRYGREVSL yielded a protein stability index of 2.47.
Work on ELDELLKEISRKRRSIRYGREVIL yielded a protein stability index of 2.38.
ELDELLKEISRKRRSIRYGREVVL gave a protein stability index of 2.57.
With ELDELLKEISRKRRSIRYGREVTL the protein stability index was 2.34.
Work on ELDELLKEISRKRRSIRYGREVNL yielded a protein stability index of 2.54.
With ELDELLKEISRKRRSIRYGREVHL the protein stability index was 2.51.
ELDELLKEISRKRRSIRYGREVAL gave a protein stability index of 2.31.
With ELDELLKEISRKRRSIRYGREVFL the protein stability index was 2.05.
Work on ELDELLKEISRKRRSIRYGREVKL yielded a protein stability index of 1.74.
Variant ELDELLKEISRKRRSIRYGREVRL has a protein stability index of 2.17.
ELDELLKEISRKRRSIRYGREFEL gave a protein stability index of 2.22.
For ELDELLKEISRKRRSIRYGREWEL, the protein stability index was 2.39.
In the case of ELDELLKEISRKRRSIRYGREKEL, the protein stability index is reported as 2.34.
Variant ELDELLKEISRKRRSIRYGREQEL has a protein stability index of 2.5.
With ELDELLKEISRKRRSIRYGRENEL the protein stability index was 2.35.
For ELDELLKEISRKRRSIRYGREYEL, the protein stability index was 2.27.
ELDELLKEISRKRRSIRYGREMEL showed a protein stability index of 2.85.
For ELDELLKEISRKRRSIRYGREREL, the protein stability index was 2.46.
In the case of ELDELLKEISRKRRSIRYGREDEL, the protein stability index is reported as 2.96.
For ELDELLKEISRKRRSIRYGRESEL, the protein stability index was 2.79.
In the case of ELDELLKEISRKRRSIRYGREPEL, the protein stability index is reported as 2.04.
ELDELLKEISRKRRSIRYGRECEL showed a protein stability index of 2.29.
ELDELLKEISRKRRSIRYGREHEL gave a protein stability index of 2.88.
For ELDELLKEISRKRRSIRYGREGEL, the protein stability index was 2.64.
Variant ELDELLKEISRKRRSIRYGRELEL has a protein stability index of 2.14.
Variant ELDELLKEISRKRRSIRYGREIEL has a protein stability index of 2.17.
Work on ELDELLKEISRKRRSIRYGREAEL yielded a protein stability index of 1.82.
In the case of ELDELLKEISRKRRSIRYGRETEL, the protein stability index is reported as 2.52.
ELDELLKEISRKRRSIRYGREEEL gave a protein stability index of 3.18.
In the case of ELDELLKEISRKRRSIRYGYEVEL, the protein stability index is reported as 1.89.
ELDELLKEISRKRRSIRYGGEVEL gave a protein stability index of 2.23.
ELDELLKEISRKRRSIRYGLEVEL showed a protein stability index of 1.84.
ELDELLKEISRKRRSIRYGIEVEL showed a protein stability index of 2.11.
ELDELLKEISRKRRSIRYGAEVEL gave a protein stability index of 2.85.
ELDELLKEISRKRRSIRYGFEVEL showed a protein stability index of 1.64.
Variant ELDELLKEISRKRRSIRYGDEVEL has a protein stability index of 3.33.
Variant ELDELLKEISRKRRSIRYGTEVEL has a protein stability index of 2.45.
ELDELLKEISRKRRSIRYGKEVEL showed a protein stability index of 2.17.
In the case of ELDELLKEISRKRRSIRYGCEVEL, the protein stability index is reported as 2.01.
With ELDELLKEISRKRRSIRYGWEVEL the protein stability index was 1.43.
Variant ELDELLKEISRKRRSIRYGMEVEL has a protein stability index of 2.02.
In the case of ELDELLKEISRKRRSIRYGEEVEL, the protein stability index is reported as 2.71.
ELDELLKEISRKRRSIRYGNEVEL showed a protein stability index of 2.8.
Work on ELDELLKEISRKRRSIRYGQEVEL yielded a protein stability index of 2.42.
For ELDELLKEISRKRRSIRYGPEVEL, the protein stability index was 2.49.
Work on ELDELLKEISRKRRSIRYGHEVEL yielded a protein stability index of 2.08.
In the case of ELDELLKEISRKRRSIRYGVEVEL, the protein stability index is reported as 1.8.
For ELDELLKEISRKRRSIRYGSEVEL, the protein stability index was 3.33.
For ELDELLKEISRKRRSIRYGREVES, the protein stability index was 2.69.
With ELDELLKEISRKRRSIRYGREVEC the protein stability index was 2.38.
ELDELLKEISRKRRSIRYGREVEA gave a protein stability index of 2.69.
With ELDELLKEISRKRRSIRYGREVEW the protein stability index was 2.42.
ELDELLKEISRKRRSIRYGREVEY gave a protein stability index of 2.54.
Work on ELDELLKEISRKRRSIRYGREVEK yielded a protein stability index of 2.33.
For ELDELLKEISRKRRSIRYGREVER, the protein stability index was 3.13.
Work on ELDELLKEISRKRRSIRYGREVEP yielded a protein stability index of 2.89.
For ELDELLKEISRKRRSIRYGREVEM, the protein stability index was 2.73.
ELDELLKEISRKRRSIRYGREVED gave a protein stability index of 2.33.
ELDELLKEISRKRRSIRYGREVEI showed a protein stability index of 2.42.
ELDELLKEISRKRRSIRYGREVEQ showed a protein stability index of 2.32.
ELDELLKEISRKRRSIRYGREVEH gave a protein stability index of 2.91.
In the case of ELDELLKEISRKRRSIRYGREVEG, the protein stability index is reported as 2.5.
ELDELLKEISRKRRSIRYGREVEV showed a protein stability index of 2.92.
ELDELLKEISRKRRSIRYGREVEN showed a protein stability index of 2.97.
Work on ELDELLKEISRKRRSIRYGREVET yielded a protein stability index of 2.86.
In the case of ELDELLKEISRKRRSIRYGREVEF, the protein stability index is reported as 2.55.
ELDELLKEISRKRRSIRYGREVEE gave a protein stability index of 2.77.
With ELDELLKEISRKRRSIRYVREVEL the protein stability index was 3.13.
Variant ELDELLKEISRKRRSIRYTREVEL has a protein stability index of 2.37.
ELDELLKEISRKRRSIRYNREVEL gave a protein stability index of 2.47.
For ELDELLKEISRKRRSIRYDREVEL, the protein stability index was 2.22.
For ELDELLKEISRKRRSIRYLREVEL, the protein stability index was 2.13.
In the case of ELDELLKEISRKRRSIRYWREVEL, the protein stability index is reported as 2.9.
Variant ELDELLKEISRKRRSIRYKREVEL has a protein stability index of 2.06.
In the case of ELDELLKEISRKRRSIRYYREVEL, the protein stability index is reported as 2.1.
With ELDELLKEISRKRRSIRYAREVEL the protein stability index was 2.34.
With ELDELLKEISRKRRSIRYHREVEL the protein stability index was 2.41.
ELDELLKEISRKRRSIRYPREVEL showed a protein stability index of 2.17.
Variant ELDELLKEISRKRRSIRYEREVEL has a protein stability index of 2.71.
In the case of ELDELLKEISRKRRSIRYFREVEL, the protein stability index is reported as 1.71.
For ELDELLKEISRKRRSIRYMREVEL, the protein stability index was 2.41.
With ELDELLKEISRKRRSIRYSREVEL the protein stability index was 2.04.
ELDELLKEISRKRRSIRYIREVEL showed a protein stability index of 2.05.
ELDELLKEISRKRRSIRYQREVEL gave a protein stability index of 2.33.
With ELDELLKEISRKRRSIRYCREVEL the protein stability index was 2.7.
Variant ELDELLKEISRKRRSIRYRREVEL has a protein stability index of 1.96.
With ELDELLKEISRKRRSIRWGREVEL the protein stability index was 1.84.
For ELDELLKEISRKRRSIRVGREVEL, the protein stability index was 1.95.

Source: the supplement of paper PMC10567573
